Patent US20210120790A1

What was measured:
[1] = biological target: Endogenous mouse SIRPα of wildtype C57BL/6 mice (mouse (C57BL/6)) (UniProt P97797); test: flow cytometry; CD47 protein on peritoneal cavity cells of wildtype C57BL/6 mice, detected with human anti-CD47 antibody and AF647 anti-hIgG
[2] = biological target: Endogenous mouse SIRPα of wildtype BALB/c mice (mouse (BALB/c)) (UniProt P97797); test: flow cytometry; CD47 protein on peritoneal cavity cells of wildtype BALB/c mice, detected with human anti-CD47 antibody and AF647 anti-hIgG

UniProt P97797, sequence (P97797 32-513): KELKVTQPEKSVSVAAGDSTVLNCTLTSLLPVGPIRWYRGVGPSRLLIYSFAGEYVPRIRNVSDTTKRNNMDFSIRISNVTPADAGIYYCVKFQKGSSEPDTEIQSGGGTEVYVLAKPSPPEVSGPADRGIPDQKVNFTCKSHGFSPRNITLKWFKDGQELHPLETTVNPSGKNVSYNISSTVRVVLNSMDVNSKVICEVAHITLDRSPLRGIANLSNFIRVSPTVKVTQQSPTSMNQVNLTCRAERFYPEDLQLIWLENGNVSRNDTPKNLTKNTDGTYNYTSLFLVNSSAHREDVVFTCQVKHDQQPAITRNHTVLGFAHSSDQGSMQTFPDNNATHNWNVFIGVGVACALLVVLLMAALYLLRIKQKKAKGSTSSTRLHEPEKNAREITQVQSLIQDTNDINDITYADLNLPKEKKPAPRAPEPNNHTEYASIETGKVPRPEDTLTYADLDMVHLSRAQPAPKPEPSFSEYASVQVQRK

geometric mean of flow cytometry signal [1]: 100
geometric mean of flow cytometry signal [2]: 100
Substance: Mouse CD47 proteins (added to peritoneal cavity cells, Example 16) (ligand)
